The results in this text go back to patent US20230213524A1 (published 2023).

The target of assay [1] is T1, human folate receptor 1 (FOLR1) on cells (human, UniProt P15328 25-234).
T1 construct: On the cell surface: 300-19 cells transfected with human FOLR1 (NCBI NP_057937), or endogenous on KB, T47D and OVCAR3 cells; also called huFOLR1; folate receptor alpha
Description: flow cytometry on T47D cells and ELISA (binding affinity 'by both methods'). As to the method:
To assure that materials were continuously performing as expected, all antibodies were screened for binding by both ELISA and flow cytometry methods known in the art. Flow cytometry was performed using FOLR1 expressing human T47D cells cultured using in-vitro cell culture techniques known in the art. The antibodies were bound to these cells and detected indirectly using a goat anti-murine Alexa-fluor 488 detection antibody on a FACScalibur machine (FIGS. 6A-B).

The target in another assay is T2, FOLR2 (UniProt P14207 17-230, limits assumed).
T2 construct: also called folate receptor 2
Description: commercially available ELISA kit. From the text: (§1) It is important that the assay detect only FOLR1, and not FOLR2 or especially FOLR3 (commonly found as a shed protein in human plasma), since Mov19 is specific for only FOLR1. To determine this, the top four clones were screened by commercially available ELISA kits (FIGS. 7A-B).
A general note: In an ELISA, binding on a coated surface is turned into a signal by an enzyme label.

Another assay deals with T3, FOLR3 (UniProt P41439 23-245, limits assumed).
T3 construct: also called folate receptor 3
The assay can be described thus: commercially available ELISA kit.
Text: as §1

Assay [2] concerns the target human folate receptor 1 (FOLR1) on cells (human) (UniProt P15328). The assay can be described thus: laser scanning cytometry on KB cells pre-treated with M9346A or vehicle, then stained with commercial FRA.

T1 sequence (P15328 25-234 limits assumed): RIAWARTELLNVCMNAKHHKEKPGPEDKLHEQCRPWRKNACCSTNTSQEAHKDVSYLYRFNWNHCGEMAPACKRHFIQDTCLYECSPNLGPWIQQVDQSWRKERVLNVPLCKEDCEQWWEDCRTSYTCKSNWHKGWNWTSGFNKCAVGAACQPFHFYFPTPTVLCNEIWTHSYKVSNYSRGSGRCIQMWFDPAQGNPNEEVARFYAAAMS
Sequence of human folate receptor 1 (FOLR1) on cells (human) (P15328 25-234 limits assumed): as above
T2 sequence (P14207 17-230 limits assumed): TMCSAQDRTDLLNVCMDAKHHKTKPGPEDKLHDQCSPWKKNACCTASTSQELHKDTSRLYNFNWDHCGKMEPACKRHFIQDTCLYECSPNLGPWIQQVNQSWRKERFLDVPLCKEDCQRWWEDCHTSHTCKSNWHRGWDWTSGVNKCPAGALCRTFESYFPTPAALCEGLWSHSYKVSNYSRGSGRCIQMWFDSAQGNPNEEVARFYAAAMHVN
T3 sequence (P41439 23-245 limits assumed): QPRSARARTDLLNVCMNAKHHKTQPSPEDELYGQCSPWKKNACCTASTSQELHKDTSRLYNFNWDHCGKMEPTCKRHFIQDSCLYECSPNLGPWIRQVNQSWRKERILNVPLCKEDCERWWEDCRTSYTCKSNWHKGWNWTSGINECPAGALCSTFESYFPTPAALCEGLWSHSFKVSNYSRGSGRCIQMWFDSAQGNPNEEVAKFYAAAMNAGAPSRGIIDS

B1: muFR1-9 (antibody, mouse IgG1, kappa, V domains shown)
VH: QVQLVESGGGLVQPGGSRKLSCAASGFTFSSFGMHWVRQAPEKGLEWVAYISSGSSTFYYADTVKGRFTISRDNPKNTLFLQMTSLRSEDTAMYYCAKELTGTFAYWGQGTLVTVSA
VL: DIVLTQSPATLSVTPGDSVSLSCRASQSINNNLHWYQQKSHESPRLLIKYASQSISGIPSRFSGSGSGTDFTLSINSVETEDFGMYFCQQSNSWPQVTFGAGTKLELKR
notes: Murine monoclonal purified from hybridoma supernatant; Capture antibody of the shed antigen ELISA; also called murine FR1-9
Take B1: in assay [1], the dissociation constant (Kd) lay in the range of 2 to 4 nM.

B2: huMov19 (M9346A) (antibody, V domains shown)
VH: QVQLVQSGAEVVKPGASVKISCKASGYTFTGYFMNWVKQSPGQSLEWIGRIHPYDGDTFYNQKFQGKATLTVDKSSNTAHMELLSLTSEDFAVYYCTRYDGSRAMDYWGQGTTVTVSS
VL: DIVLTQSPLSLAVSLGQPAIISCKASQSVSFAGTSLMHWYHQKPGQQPRLLIYRASNLEAGVPDRFSGSGSKTDFTLTISPVEAEDAATYYCQQSREYPYTFGGGTKLEIKR
notes: also called IMGN853 antibody; antibody component of IMGN853
Regarding B2, the binding result in the assay with FOLR2 and with FOLR3 was “no binding” in each case. Further, the drop in FRA signal in assay [2] came to 66%.

B3: muFR1-13 (antibody, mouse IgG2b, kappa, V domains shown)
VH: QVQLKESGPDLVAPSQSLSITCTVSGFSLSRYSVHWIRQPPGKGLEWLGMIWSGGNTDYNSVFKSRLNITKDNSKSQVFLKMNSLQTDDTAIYYCATFDGKVSWFAYWGQGTLVTVSA
VL: SIVMTQTPKFLLVSTGDRFTITCKASQSVSNDVLWYQQKPGQSPKLLIYYAYNRYSGVPDRFTGSGYGTDFTFTITTVQSEDLAVYFCQQDHSSPFTFGSGTKLEIKR
notes: Murine monoclonal purified from hybridoma supernatant; Used biotinylated as the detection antibody in the ELISAs and unlabeled in the cytometry assays; also called muFR1-13b; Biotinylated FR1-13
In turn, B3 gave a Kd in assay [1] of 1 to 3 nM.

As a reminder, the Kd is the concentration at which binding is half-saturated. A low value points to a tighter complex.
